Source: article PMC12784961, “Structure of Bacillus subtilis Ku-mediated DNA synaptic complex”

T1: bsKu core (wild type) (Bacillus subtilis, UniProt O34859 18-244)
T1 sequence: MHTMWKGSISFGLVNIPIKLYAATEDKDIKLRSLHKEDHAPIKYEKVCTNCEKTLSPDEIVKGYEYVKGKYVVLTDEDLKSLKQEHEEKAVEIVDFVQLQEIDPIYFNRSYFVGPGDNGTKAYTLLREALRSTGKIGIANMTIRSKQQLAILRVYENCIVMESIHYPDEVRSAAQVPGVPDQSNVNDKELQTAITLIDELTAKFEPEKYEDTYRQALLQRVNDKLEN

B1: 13-bp DNA (dsDNA)
DNA 1: GTACCTGTAGAAG
DNA 2: CTTCTACAGGTAC
B2: 11-bp DNA with 2-nt overhang (dsDNA)
DNA 1: ACACACGCCGAGC
DNA 2: GCTCGGCGTGT

Experiments:
bsKu core (wild type) [1] = target: T1, bsKu core (wild type); assay: cryo-EM; 2.74 A; two blunt ends bridged by two Ku homodimers; EMSA: 20 mM HEPES pH 7.5, 150 mM KCl, 1 mM DTT, 50 nM DNA, 30 min at 4°C, 15% native PAGE in 0.5x TBE, SYBR Gold; SEC: same buffer, protein:DNA 1:2, 1 h at 4°C, Superdex 75; conditions: protein: recombinant, tags: N-terminal 8xHis-MBP, cleaved with PreScission protease, chain copies: 2
bsKu core (wild type) [2] = target: T1, bsKu core (wild type); assay: size-exclusion chromatography; 1:1 complex, no oligomerization; EMSA: 20 mM HEPES pH 7.5, 150 mM KCl, 1 mM DTT, 50 nM DNA, 30 min at 4°C, 15% native PAGE in 0.5x TBE, SYBR Gold; SEC: same buffer, protein:DNA 1:2, 1 h at 4°C, Superdex 75; conditions: protein: recombinant; tags: N-terminal 8xHis-MBP, cleaved with PreScission protease; chain copies: 2; 2-nt overhang; main text says at one end

Binder	binding result (bsKu core (wild type) [1])	binding result (bsKu core (wild type) [2])
B1	binds	–
B2	–	binds
